# Test results published in publication PMC11676163, “Comparison of Two Chelator Scaffolds as Basis for Cholecystokinin-2 Receptor Targeting Bimodal Imaging Probes” (Pharmaceuticals, 2024).
# Values joined by “and” are separate entries in the source; they are usually repeats but may differ in a detail not shown here. Equal values may be shown once.
# How the values were obtained:
# [1] = molecular target: T1, CCK2 receptor (Homo sapiens, UniProt P32239); assay: Receptor-binding affinity, competition against [^177Lu]Lu-DOTA-MGS5 on A431-CCK2R cells; details: metal-free compounds, vs [^177Lu]Lu-DOTA-MGS5, 1 h RT
# T1 construct: expressed in transfected cells; host or cells: A431 human squamous carcinoma cells (A431-CCK2R), provided by Dr. Luigi Aloj
# T1 sequence (P32239 1-447): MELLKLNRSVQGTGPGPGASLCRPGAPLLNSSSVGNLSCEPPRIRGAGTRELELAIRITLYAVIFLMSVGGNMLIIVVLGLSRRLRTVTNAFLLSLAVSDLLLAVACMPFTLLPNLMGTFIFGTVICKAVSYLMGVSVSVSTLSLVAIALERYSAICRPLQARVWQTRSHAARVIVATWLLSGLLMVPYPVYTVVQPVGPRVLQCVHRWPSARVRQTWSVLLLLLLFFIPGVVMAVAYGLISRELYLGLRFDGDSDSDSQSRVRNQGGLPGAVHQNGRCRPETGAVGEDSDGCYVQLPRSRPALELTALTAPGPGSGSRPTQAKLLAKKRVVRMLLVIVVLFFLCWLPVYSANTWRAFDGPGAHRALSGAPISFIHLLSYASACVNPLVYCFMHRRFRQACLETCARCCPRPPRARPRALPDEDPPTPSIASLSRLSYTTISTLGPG
# Method: A total of 5 µg of DOTA-MGS5 were radiolabelled with 20 µL of [^177Lu]LuCl3 solution (300–400 MBq; 90–95 GBq/µmol) and 30 µL of 0.4 M sodium acetate/0.24 M gentisic acid solution with pH 5. The labelling mixture was heated at 90 °C for 20 min. At the end, the solution was diluted to a concentration of 200 nM and stored in a freezer for further use. Binding assays were carried out in 96-well filter plates (Multi-ScreenHTS-FB, Merck Group, Darmstadt, Germany) pretreated with 10 mM TRIS/139 mM NaCl buffer at pH 7.4 (TRIS-buffer) (2 × 250 μL) before 400,000 A431-CCK2R cells per well were added in 20 mM HEPES buffer at pH 7.4 containing 10 mM MgCl2, 14 μM bacitracin, and 0.5% (w/v) bovine serum albumin (BSA) (binding assay buffer). Competition assays were performed two times in triplicate using increasing concentrations of competitors (0.001–1,000 nM) and a constant amount of radioligands (~30,000 cpm, 0.3 nM). After 1 h of incubation at room temperature (RT), the medium was removed by vacuum filtration and the filters were rapidly rinsed with ice-cold binding assay buffer (2 × 200 μL), removed, and counted in the γ-counter. Half-maximal inhibitory concentration (IC50) values were calculated following non-linear regression with Origin software (MicroCal Origin 6.1, Northampton, MA, USA).
# [2] = Distribution coefficient (LogD pH7.4), octan-1-ol/PBS; type: physicochemical; details: octan-1-ol/PBS pH 7.4, n = 6
# Method: For lipophilicity determination, [^68Ga]Ga-CyTMG and [^68Ga]Ga-CyFMG labelling solutions were diluted with phosphate-buffered saline (PBS, pH7.4) to a concentration of 0.1 µM. A total of 300 µL of this solution was added to an Eppendorf tube containing 300 µL of octan-1-ol. The mixture was shaken at 1400 rpm and at RT for 15 min and centrifuged at 4500× g rpm for 2 min for phase separation. Afterwards, 100 µL of the organic phase and of the aqueous phase were taken out and the activities of the aliquots were quantified in a γ-counter (n = 6). The LogD values were calculated with the following formula:(1) LogDpH7.4=log10  CPMoctanol phase/CPM PBS phase
# [3] = physchem; type: physicochemical; details: buffer or solvent, pH 7.4
# Method: For stability and protein binding studies, the labelling solutions were diluted with PBS or human serum to a concentration of 0.5 µM and incubated at 37 °C for 1 h, 2 h, and 4 h (n = 3). In the case of serum stability for each timepoint, 100 uL of the incubated solution was diluted 1:1 with ACN to make the proteins precipitate and the solution was centrifuged for 2 min at 14,000× g rpm. A total of 100 uL of the supernatant was then diluted 1:1 with water and analyzed by radio-HPLC. For stability in PBS, 100 uL of the incubated solution was diluted 1:1 with water and analyzed by radio-HPLC for every timepoint.
# [4] = system: A431-CCK2R cells; assay: Cell uptake studies on A431-CCK2R cells; type: cell-based, human; details: 0.5 nM, 1 h, 37 °C
# Source text: (§1) The human squamous carcinoma cell line A431 transfected with human CCK2R (A431-CCK2R) and with the empty vector alone (A431-mock) were originally provided by Dr. Luigi Aloj (Nuclear Medicine Unit, Istituto Nazionale per lo Studio e la Cura dei Tumori “Fondazione Giovanni Pascale”-IRCCS, Naples, Italy). All cell culture media and reagents were purchased from Gibco, Invitrogen (Thermo Fisher Scientific, Vienna, Austria), or Sigma-Aldrich (Darmstadt, Germany) Corporation. Dulbecco's Modified Eagle's medium (DMEM) supplemented with 10% (v/v) fetal bovine serum, FBS (10270, Invitrogen, Thermo Fisher Scientific, Waltham, MA, USA), and 1% (v/v) penicillin-streptomycin-glutamine, PSG (10378, Gibco, Thermo Fisher Scientific, Waltham, MA, USA), was used for cell culture. The cells were grown at 37 °C in a humidified atmosphere with 5% carbon dioxide and were passaged 3 times per week using a 2.5% trypsin-EDTA solution. The cell internalization of the radiolabelled compounds was measured on A431-CCK2R and A431-mock cells. A total of 1.0 × 10^6 cells per well were seeded in 6-well culture plates (Greiner Cellstar, Sigma-Aldrich […] GmbH, Vienna, Austria) and grown for 48 h. On the day of the experiment, each well was washed twice with internalization medium (culturing medium supplemented with 1% (v/v) FBS) and then incubated with 0.5 nM of a radioactive compound for 1 h at 37 °C. After the incubation, the medium was removed and the cells rinsed with 2 × 1 mL of PBS/0.5% (w/v) bovine serum albumin (BSA). Thereafter, they were washed twice with 1 mL of 50 mM glycine buffer (pH 2.8) with 0.1 M NaCl to remove the membrane-bound radiocompound. Finally, the cells were lysed with 2 × 1 mL of 1 M NaOH to determine the internalized radioligand. All fractions were measured in the γ-counter and the percentage of internalized and membrane-bound radiocompounds in relation to the total radioactivity added to the cells was reported.
# [5] = system: A431-mock cells; assay: Cell uptake studies on A431-mock cells; type: cell-based, human; details: 0.5 nM, 1 h, 37 °C
# Source text: as §1
# [6] = in vivo; details: BALB/c, mouse, total radioactivity
# Method: For the ex vivo biodistribution study on healthy BALB/c mice, 3 animals per group were injected with 0.14 nmol of radiotracer (1.5 MBq) and then sacrificed after 1, 2, and 4 h. The organs of interest were extracted, weighed, and measured in the γ-counter. Results were expressed as percentages of injected dose per gram tissue (% ID/g).
# [7] = in vivo; details: athymic BALB/c nude, mouse, total radioactivity
# Method: (§2) For the induction of tumour xenografts, 2 × 10^6 of A431-CCK2R or A431-mock cells in 200 μL appropriate medium and Matrigel (1:1) were subcutaneously injected in the right and left flank of each mouse (athymic BALB/c nude), respectively. The tumours were allowed to grow until they had reached a volume of 0.3 to 0.6 cm^3. To evaluate ex vivo biodistribution on tumour models, 3 mouse xenografts were injected with 0.05 nmol of radiotracer (1 MBq) and then sacrificed after 2 h. For the comparative imaging study (PET/CT and in vivo fluorescence imaging), 2 xenograft-bearing mice were injected with 0.3 nmol (6 MBq) of radiotracer. Static PET/CT images of the anesthetized animals in prone position were acquired with a Mediso NanoScan PET/CT small-animal imaging system (Mediso Medical Imaging Systems, Budapest, Hungary) at 1, 2, and 3 h p.i. Image reconstruction was performed via Mediso Tera-Tomo 3D PET iterative reconstruction (Mediso Medical Imaging Systems, Budapest, Hungary). The images were visualized, processed, and quantified in Mediso InterView FUSION (Mediso Medical Imaging Systems, Budapest, Hungary). Quantitative analyses were performed on images of 3 mouse xenografts per compound. The images were normalized to injected activity and animal weight. The results were expressed as percentages of injected dose per gram tissue (% ID/g).
# [8] = system: A431-CCK2R / A431-mock xenografts; assay: in vivo; details: mouse
# Method: as §2
# [9] = system: A431-CCK2R / A431-mock xenografts; type: in vivo, mouse; details: for Time after injection from which cancerous tissue could be well delineated by fluorescence imaging: A431-CCK2R xenografts, 0.3 nmol; for Persistence of fluorescence signal in the kidneys: mouse, in vivo
# Method: as §2
# Near-infrared in vivo fluorescence imaging was conducted with an in vivo MS FX PRO small-animal imaging system (Bruker Biospin Corporation, Woodbridge, CT, USA) and image analysis was performed with Bruker MI SE software v. 7.1.1.20220 (Bruker Biospin Corporation, Woodbridge, CT, USA). The mice were positioned in the system in supine position and scanned at various time intervals up to 72 h p.i. by using an appropriate filter set (excitation = 650 nm and emission = 700 nm) and identical illumination settings (acquisition time = 30 s, f-stop = 2.8, field of view = 100 mm, and binning = 4 × 4). The fluorescence emission was reported as photons/s/mm^2.
# [10] = Accumulation of radioactivity in A431-CCK2R xenografts
# [11] = Accumulation of radioactivity in A431-mock tumours
Structure (SMILES),IC50 [1] [nM],LogDpH7.4 ± SD [2],"remaining at 1 h, 0.5 µM [3] [%]","remaining at 2 h, 0.5 µM [3] [%]","remaining at 4 h, 0.5 µM [3] [%]","Internalized fraction, % of total activity [4]","Membrane bound, % of total activity [4] [%]","Internalized fraction, % of total activity [5] [%]","Membrane bound, % of total activity [5] [%]",tissue uptake at 1 h [6] [%ID/g],tissue uptake at 2 h [6] [%ID/g],tissue uptake at 4 h [6] [%ID/g],"tissue uptake at 2 h ([7]; 0.05 nmol, Kidney uptake) [%ID/g]","tissue uptake at 2 h [7, 10] [%ID/g]","tissue uptake at 2 h [7, 11] [%ID/g]",Ratio of CCK2R-positive tumours and A431-mock xenografts [8],Time after injection from which cancerous tissue could be well delineated by fluorescence imaging [9] [h],Persistence of fluorescence signal in the kidneys [9]
"CCCC[C@@H](C(=O)N[C@@H](CC(=O)O)C(=O)N[C@@H](Cc1cccc2ccccc12)C(N)=O)N(C)C(=O)[C@H](Cc1c[nH]c2ccccc12)NC(=O)CCOCCOCCOCCOCCn1cc(CNC(=O)CCP(=O)(O)CN2CCN(CP(=O)(O)CCC(=O)NCc3cn(CCCNC(=O)CCCCC[N+]4=C(C=CC=CC=C5N(C)c6ccc7c(S(=O)(=O)O)cc(S(=O)(=O)O)cc7c6C5(C)C)C(C)(C)c5c4ccc4c(S(=O)(=O)O)cc(S(=O)(=O)O)cc54)nn3)CCN(CP(=O)(O)CCC(=O)NCc3cn(CCOCCOCCOCCOCCC(=O)N[C@@H](Cc4c[nH]c5ccccc45)C(=O)N(C)[C@@H](CCCC)C(=O)N[C@@H](CC(=O)O)C(=O)N[C@@H](Cc4cccc5ccccc45)C(N)=O)nn3)CC2)nn1 (single isomer, unassigned) [CyTMG]",0.24 ± 0.16,,,,,,,,,,,,,,,,,
"CCCC[C@@H](C(=O)N[C@@H](CC(=O)O)C(=O)N[C@@H](Cc1cccc2ccccc12)C(N)=O)N(C)C(=O)[C@H](Cc1c[nH]c2ccccc12)NC(=O)CCOCCOCCOCCOCCn1cc(CNC(=O)CCP(=O)(O)CN2CCN(CP(=O)(O)CCC(=O)NCc3cn(CCCNC(=O)CCCCC[N+]4=C(C=CC=CC=C5N(C)c6ccc7c(S(=O)(=O)O)cc(S(=O)(=O)O)cc7c6C5(C)C)C(C)(C)c5c4ccc4c(S(=O)(=O)O)cc(S(=O)(=O)O)cc54)nn3)CCN(CP(=O)(O)CCC(=O)NCc3cn(CCOCCOCCOCCOCCC(=O)N[C@@H](Cc4c[nH]c5ccccc45)C(=O)N(C)[C@@H](CCCC)C(=O)N[C@@H](CC(=O)O)C(=O)N[C@@H](Cc4cccc5ccccc45)C(N)=O)nn3)CC2)nn1 (single isomer, unassigned) [[^68Ga]Ga-CyTMG, metal not drawn]",,−1.78 ± 0.16,97.98 ± 0.2,97.56 ± 0.09,96.7 ± 1.15,10.59 ± 0.40% and 10.6%,0.8,0.2,0.5,75.8 ± 3.88,124 ± 6.46,173 ± 13,119 ± 9.12,6.47 ± 1.47,2.46 ± 0.4,2.63,≥ 1,up to 72 h
"CCCC[C@@H](C(=O)N[C@@H](CC(=O)O)C(=O)N[C@@H](Cc1cccc2ccccc12)C(N)=O)N(C)C(=O)[C@H](Cc1c[nH]c2ccccc12)NC(=O)CCOCCOCCOCCOCCn1cc(CCC(=O)N[C@H]2CCCN(O)C(=O)/C=C(/C)CCOC(=O)[C@@H](NC(=O)CCc3cn(CCOCCOCCOCCOCCC(=O)N[C@@H](Cc4c[nH]c5ccccc45)C(=O)N(C)[C@@H](CCCC)C(=O)N[C@@H](CC(=O)O)C(=O)N[C@@H](Cc4cccc5ccccc45)C(N)=O)nn3)CCCN(O)C(=O)/C=C(/C)CCOC(=O)[C@@H](NC(=O)CCc3cn(CCCNC(=O)CCCCC[N+]4=C(/C=C/C=C/C=C5/N(C)c6ccc7c(S(=O)(=O)O)cc(S(=O)(=O)[O-])cc7c6C5(C)C)C(C)(C)c5c4ccc4c(S(=O)(=O)O)cc(S(=O)(=O)O)cc54)nn3)CCCN(O)C(=O)/C=C(/C)CCOC2=O)nn1 [[^68Ga]Ga-CyFMG, metal not drawn]",,−1.53 ± 0.10,99.1 ± 1.07,98.57 ± 0.47,99.3 ± 0.71,24.48 ± 1.33% and 24.5%,0.9,1.3,0.7,45.9 ± 3.03,59.3 ± 5.04,74.3 ± 11.7,50.7 ± 8.42,4.02 ± 1.64,1.02 ± 0.13,3.94,≥ 3,visibly declined from 24 h to disappear completely at 72 h after injection
